# Values quoted from earlier work, collected in paper PMC7599994.
# Molecular target: HIV-1 capsid CA CTD (Human immunodeficiency virus 1) (UniProt O93182)
substance,measurement,value
HIV-1 capsid CA CTD (from UniProt O93182),Kd,10 µM
